Measurements from the supplement of paper PMC9170038.

Test system: MS2 coat protein
Assay: apparent KD of MS2 coat protein; designed switch direction (-1 OFF switch, 1 ON switch): 1; higher = weaker reporter binding
In short: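 The buffer was Tris-HCl pH 7.5 with KCl, MgCl2, BSA, DTT, tRNA and Tween-20. In it, SNAP-549-labelled MS2 coat protein was titrated in doubling steps from 0.7 or 1.5 nM to 3 µM over chip-bound RNA switches transcribed by stalled E. coli RNA polymerase on Illumina chips. Apparent KD is the per-design median over clusters of curve fits to normalised fluorescence.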

[1] = input ligand: microRNA oligo, concentration not stated
[2] = Eterna round: R95, input ligand: microRNA oligo, concentration not stated
[3] = Eterna round: R95, input ligand: FMN 200 uM
[4] = Eterna round: R95, input ligand: none

Sequence | apparent KD of MS2 coat protein (input ligand: FMN 200 uM) [nM] | apparent KD of MS2 coat protein [1] [nM] | apparent KD of MS2 coat protein (input ligand: none) [nM] | apparent KD of MS2 coat protein [2] [nM] | apparent KD of MS2 coat protein [3] [nM] | apparent KD of MS2 coat protein [4] [nM]
CCAGGACAUGAGGAUCACCCAUGUGCUUAAUGUGGAGAAUCUCAGGAUAUCAUGAGGAUUACCCAUGAGAAGGGAGAUCCGAGG (Eterna round: R96, puzzle: Same State NG 3) | 437 | 300 | 483 |  |  | 
ACUUGCGGCACAGGAUAUGGGUGCCUGUACAUGAGGAUCACCCAUGUUAAGGGACGGAUUACGAACCAGAAGGGUGAGGCGGGC [Aqube] (Eterna round: R96, puzzle: Same State NG 2) | 1350 | 296 | 300 |  |  | 
AAUGCACAUGAGGAUCACCCAUGUAAGACAAAGACAGGAUAUGGGCCGCAUGGCUCUGGCCCAGAAGGGUCAGUCG [Biorinin] (puzzle: Same State 1) |  |  |  | 19.8 |  | 
UCUUGGUUUUUGCUCGUUUUUUGUGUUGAACAUGAGGAUCACCCAUGUAUUGUACGGUCCGGUUUGAUAAUGGUCCG [JMF 13] (puzzle: Sensor for hsa-mir-208a) |  |  |  | 15.5 | 26 | 27.1
UUGAAGAAUUAAGGAUAUUGAAUACAUAUGUUAAACAUGAGGAUCACCCAUGUGGGUUGCGGUAUCGAGAAGGUAAAUUACUAG [Mat - same State NG 2 - JL mod - D80] (Eterna round: R96, puzzle: Same State NG 2) |  | 60.1 |  |  |  | 
UACAAUCUAUCUGAGGAUAUCAUGAAAAAAACAUGAGGAUCACCCAUGUGCAGGAAAACUGCAUAUGAGAAGGCAGAUAGAUUGG [salish99_SS2_r3_007] (puzzle: Same State 2) |  |  |  | 3390 | 14.3 | 11700
AGUCCAGCCUGAGCUGGACAAAAGCGUGUACAUGAGGAUCACCCAUGUUCAUGUACAAGCUUUUUGCUCGUCUUAAA [Zipper 52 - 6] (puzzle: Sensor for hsa-mir-208a) |  |  |  | 20 | 25.7 | 127
GUGGUCAGACAUGAGGAUCACCCAUGUGGAAUAAAUAAGGGACAGGAUAUGGAAUAUAGGAUAUACCAGAAGGGUUGGUUGGUG (Eterna round: R96, puzzle: Same State NG 3) | 86.2 | 68.7 | 82 |  |  | 
GCGAAGAGGUAAGGAUAUUCAUGGCGGAGACAUGAGGAUCACCCAUGUAGGAGACGAAAUCUAAGGGAGAAGGUACCAGGACGC [AK SSNG2-V2-14] (Eterna round: R96, puzzle: Same State NG 2) | 112 | 147 | 321 |  |  | 
AGGAAGGAGACUGAGGAUAUCGUAAGGAGGACAUGAGGAUCACCCAUGUGUAUAGGAUUGGAGGACGAGAAGGCAGAGGAGUGGG [JR_SS2_Sub048] (puzzle: Same State 2) |  |  |  | 19.7 | 29.7 | 26.5
GGGAGAGGUACAGGAUAUGGUGAGGAUCACCCACUAGAAGGGUGCACAUGUGAAUCGGACAUGAGGAUCACCCAUGUUGGGCGU (Eterna round: R96, puzzle: Same State NG 1) | 213 | 265 | 424 |  |  | 
AUAUAACAUGAGGAUCACCCAUGUCUCUAAAGUCGAGGAUAUGGGCAGGUUAUAUCCGAACCAGAAGGCGGGUUAU [SS1 Teenbexe 8] (Eterna round: R96, puzzle: Same State 1) | 1020 | 287 | 554 |  |  | 
AAGUAGCGAGAGCUACACAAAAAGUUUGUACAUGAGGAUCACCCAUGUUGUACAAGCUUUUUGCUCGUCUUAAAAAA [Mat - Sensor - JL mod - D14] (Eterna round: R96, puzzle: Sensor for hsa-mir-208a) | 77.4 | 11.6 | 84.1 |  |  | 
AUUAGUAAUGCAGGAUAUGAUUAACAUGAGGAUCACCCAUGUGGUGUUGUGAGUAAGGAGAGUGAUCAGAAGGGCAUUUUUUUU [JMF's solution 28] (Eterna round: R96, puzzle: Same State NG 2) | 979 | 411 | 444 |  |  | 
UUAACAUGAGGAUCACCCAUGUAUGCGUAGCUUGCAUUUUGACAGGAUAUUGAAUAUCUAUAUAGCAAGAAGGGUCGUUAGUCU [JR_SSNG3_Sub008] (Eterna round: R96, puzzle: Same State NG 3) | 91.8 | 53.3 | 94.9 |  |  | 
GGUAGGUUACUACCAAUCUACAUGAGGAUCACCCAUGUGUAGGAGGAUAUGGUACCUAUUUGGUACCAGAAGGCCUGAUUAAUU [Fiskers NG3ss - 8] (Eterna round: R96, puzzle: Same State NG 3) | 115 | 80.4 | 247 |  |  | 

Sequence | apparent KD of MS2 coat protein (input ligand: FMN 200 uM) [nM] | apparent KD of MS2 coat protein [1] [nM] | apparent KD of MS2 coat protein (input ligand: none) [nM] | apparent KD of MS2 coat protein [2] [nM] | apparent KD of MS2 coat protein [3] [nM] | apparent KD of MS2 coat protein [4] [nM]
GUGAAGAAUUAAGGAUAUCGAGUCAAGAUGUUAAACAUGAGGAUCACCCAUGUGGGUUGCGGUAUCGAGAAGGUAAAUUACAGG [salish99_SSNG2_r04_502] (Eterna round: R96, puzzle: Same State NG 2) | 25.9 | 21.1 | 31.7 |  |  | 
GGUCCAGCCUGAGCUGGACAAAAGCAUGUACAUGAGGAUCACCCAUGUCAUGUACAAGCUUUUUGCUCGUCUAAAGA [Mat - hsa-mir-208a - 91] (puzzle: Sensor for hsa-mir-208a) |  |  |  | 17.7 | 517 | 705
GAGUGGUGGAGAGGAUAUGCAUUGUUAUUCACUGUAGAAGGUUCUAACAUGAGGAUCACCCAUGUAGGACUAUUCCUGUGUUUU [Parity 58 - Jieux - Same State NG 1] (Eterna round: R96, puzzle: Same State NG 1) |  | 9.4 |  |  |  | 
GUUACAUGAGGAUCACCCAUGUAUGUGUGGGAGUAAGUGUCUUAGGAUAUCUAUGAUUUAAUUUCAGAGAAGGAAGAUUGUUGU [JMF's solution 88] (Eterna round: R96, puzzle: Same State NG 3) | 119 | 68 | 109 |  |  | 
UCAAGCGUUUGGCUCGUUUUAUGUGUUGAACAUGAGGAUCACCCAUGUAUUGUACGAUCCAGUUAGAUGGUAUUUUG [JR_SHM208A_Sub040] (puzzle: Sensor for hsa-mir-208a) |  |  |  | 104 | 46.9 | 67.6
AGAUCAUGACGAGGAUAUGGUACAUGAGGAUCACCCAUGUAUGUAUCAUAACGCGAAUGACGAAACCAGAAGGCGUCGUGAUCA [Mat - Same State NG 2 - JL mod - D43] (Eterna round: R96, puzzle: Same State NG 2) | 8.74 | 11.9 | 15.8 |  |  | 
CCAAUGUACAAUUUAGAUCUACAUGAGGAUCACCCAUGUACAGAGGAUAUCAGCUCGUGUAGAGCUGAGAAGGCUGAAUUAAUU [SSNG3/3-A4] (Eterna round: R96, puzzle: Same State NG 3) | 117 | 117 | 179 |  |  | 
GGUGCGAAAUAAGCCUACAUGAGGAUCACCCAUGUAUGUAGGCAGGAUAUCGUAUGCAAAGCAUACGAGAAGGGCUGUCGCACC [Mat - Same State NG 3 - JL Mod - D48] (Eterna round: R96, puzzle: Same State NG 3) | 33.2 | 61 | 94.6 |  |  | 
UAUCCAUAGAUAGGAUAUUAGUGAACAUGAGGAUCACCCAUGUUUUGCUUGGUUUUAAGUUAAUCUGAGAAGGAUCUUGAUGAA [SameState NG2 #5] (Eterna round: R96, puzzle: Same State NG 2) | 20.3 | 14.6 | 20.4 |  |  | 
UUAAGCAACGGGCAGGAUAUGUAUUAAUAUACAUGAGGAUCACCCAUGUGCAGGUGUAACACCUGACAGAAGGGCCAAUCGCUGC [Soteed - 10] (puzzle: Same State 2) |  |  |  | 509 | 82.1 | 515
CCGAUGAUAGGACAGGAUAUGACUGUCGUCACAUGAGGAUCACCCAUGUCCCGGCAAUGCCACCGUUAGAAGGGUCCCAUCUCGG [Uslainarin] (Eterna round: R96, puzzle: Same State 2) | 18.2 | 18.6 | 23.8 |  |  | 
AAACGCAGCAUAUCGCUGCGACAUGAGGAUCACCCAUGUACACAGGAUAUCGCAGCAUACCGCCGCGAGAAGGGUGAUCAAGAC [Anonlete] (Eterna round: R96, puzzle: Same State NG 3) | 99.3 | 16.3 | 33.9 |  |  | 
GUAUCUACAGGUUGCAAUGCUCGUCGGAUACAUGAGGAUCACCCAUGUUAUAGCCCUGUGCUUGCGCAGGGCUGAUU [Sensor for hsa-mir-208a ( MOD of Tearor )] (puzzle: Sensor for hsa-mir-208a) |  |  |  | 39.4 | 46.8 | 49.5
GGUAUCGGCACAGGAUAUGCUAUCCUUUGGGUAGCAGAAGGGUGAACAUGAGGAUCACCCAUGUAGGUGCCAGGGCGUGAGCCC [JL SSNG1 1.80] (Eterna round: R96, puzzle: Same State NG 1) | 213 | 56.4 | 149 |  |  | 
AUUAUACAUGAGGAUCACCCAUGUCAAUGUAGUCGAGGAUAUGGGCAGCUGUGAGGCGUACUAGAAGGCGAAGAGA [Mat - Same State 1 - Mod of JL - D9] (puzzle: Same State 1) |  |  |  | 192 | 59.9 | 222
